Source: the nanobody polyreactivity screen of Harvey et al. (2022)

Assay: yeast display, Sf9 membrane polyspecificity reagent, FACS + sequencing; frameworks hold sequencing errors
Method in brief: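 After 36–48 hours of galactose induction, yeast (Saccharomyces cerevisiae BJ5465) displaying a synthetic nanobody library were stained at 4 °C for 1 hour with 10% biotinylated, detergent-solubilized Sf9 membrane reagent. Streptavidin microbeads enriched the stained cells before FACS sorting into low and high (top ~1%) gates on anti-HA and streptavidin fluorescence. Each clone's polyreactivity label reflects its gate of origin.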

Row | Sequence | polyreactivity (PSR sort gate)
1 | QVQLVESGGGLVQAGGSLRLSCAASGIIFYAYVMGWYRQAPGKERELVAAITVSGGSTYYADSVKGRFTISRDNAKNTVYLQMNSLKPEDTAVYYCAADWNFYQRTFDSWGQGTQVTVSS | low polyreactivity
2 | QVQLVESGGGLVQAGGSLRLSCAASGIIFYDYAMGWYRQAPGKERELVAAISKRGGSTYYADSVKGRFTISRDNAKNTVYLQMNSLKPEDTAVYYCAAKYYRYGDPDRYDYWGQGTQVTVSS | high polyreactivity
3 | QVQLVESGGGLVQAGGSLRLSCAASGIIFYDYAMGWYRQAPGKERELVATITRGGGTKYADSVKGRFTISRDNAKNTVYLQMNSLKQEDTAVYYCAADSHGDYEGDYWGQGTQVTVSS | low polyreactivity
4 | QVQLVESGGGLVQAGGSLRLSCAASGIIFYFYAMGWYRQAPGKERELVAAITSSGGSTYYADSVKGRFTISRDNAKNTVYLQMNSLKPEDTAVYYCAADSLHGRKFRGVDYWGQGTQVTVSS | low polyreactivity
5 | QVQLVESGGGLVQAGGSLRLSCAASGIIFYGNTLGWYRQAPGKERELVAGIDFSDDSTNYADSVKGRFTISRDNAKNSVYLLRNSLKPEDTAVYYCAADTRSPSAQEVDYWGQGTQVTVSS | low polyreactivity
6 | QVQLVESGGGLVQAGGSLRLSCAASGIIFYGYVMGWYRQAPGKERELVATITSSGGSTYYADSVKGRFTISRDNAKNSVYLQMNSLKPEDTAVYYCAADYYYGAWVRHDYWGQGTQVTVSS | low polyreactivity
7 | QVQLVESGGGLVQAGGSLRLSCAASGIIFYHYPMGWYRQAPGKERELVAAITGSGIRTYYADSVKGRFTISRDNAMNTVYLQMNSLKPEDTAVYYCGAQQRYWSTYGYWGQGTQVTVSS | high polyreactivity
8 | QVQLVESGGGLVQAGGSLRLSCAASGIIFYIYTMGWYRQAPGKERELVAAINRSGSRTYYADSVKGRFTISRDYAKNNVYLQMNSLKPEDTAVYYCAAGTGSRDDYWGQGTQVTVST | high polyreactivity
9 | QVQLVESGGGLVQAGGSLRLSCAASGIIFYKNAMGWYRQAPGKERELVAAISGSGGRTYYADSVKGRFTISRDNAKKTVYLQMNSLKPEDTAVYYCAARKPYRHGYESWGQGTQVTVSS | high polyreactivity
10 | QVQLVESGGGLVQAGGSLRLSCAASGIIFYKYAMGWKRQGPGKERELVAAITSGGRRTYYADSVKGRFTISRDNAKNTVYLLMNSLKPEDTEAFYCAARFSYPWLYLFVYWGQVTQVTVSS | high polyreactivity
11 | QVQLVESGGGLVQAGGSLRLSCAASGIIFYKYAMGWYRQAPGKERELVAAITSGGGRTYYADSVKGRFTISRDNAKNTVYLQMNSLKPEDTAVYYCAATRPATYAAYDYWGQGTQVTVSS | high polyreactivity
12 | QVQLVESGGGLVQAGGSLRLSCAASGIIFYLNAMGWYRQAPGKERELVAAISNGTSTNYADSVKGRFTISRDNAKNTVYLQMNSLKPEDTAVFYCAADDLRYNSRSSNYRGDYWGQGTQVTVSS | low polyreactivity
13 | QVQLVESGGGLVQAGGSLRLSCAASGIIFYLNAMGWYRQAPGKERELVAGITYSGGSTYYADSVKGRFTISRDNAKNTVYLQMNSLKPEDTAVYYCAARTKWYIFLYDYWGQGTQVTVSS | low polyreactivity
14 | QVQLVESGGGLVQAGGSLRLSCAASGIIFYPNAMGWYRQAPGKERELVAAITSDGSTYYADSVKGRFTISRDNAKNTVYLQMNSLKPEDTAVYYCAAWDDYGYDYWGQGTQVTVSS | low polyreactivity
15 | QVQLVESGGGLVQAGGSLRLSCAASGIIFYRNAMGWYRQAPGKERELVAAISKGGGSTYYADSVKGRFTISRDNAKNTVYLQMNSLKPEDTAVYYCAAKAYTYYARIGFDYWGQGTQVTVSS | high polyreactivity
16 | QVQLVESGGGLVQAGGSLRLSCAASGIIFYRNAMGWYRQAPGNERELVAAITSSGGRTYYADSVKGRFTISRDNAKNTVYLQMNSLKPEDTPVYYCAATRLYWKIFYGDGDYWGQGTQVTVSS | high polyreactivity
17 | QVQLVESGGGLVQAGGSLRLSCAASGIIFYRNTMGWYRQAPGKERELVAAIRRGGNTYYADSVKGRFTISRDNAKNTVYLQMNSLKPEDTAVYYCAASAGPRASYYYWGQGTQVTVSS | high polyreactivity
18 | QVQLVESGGGLVQAGGSLRLSCAASGIIFYRYTMGWYRQAPGKERELVAAISSRGGSTYYADSVKGRFTISRDNAKNTVYLQMNSLKPEDTAVYYWNARSKRTARYNYWGQGTQVTVSS | high polyreactivity
19 | QVQLVESGGGLVQAGGSLRLSCAASGIIFYRYTMGWYRQAPGKERELVAAITSGGDTNYADSVKGRFTISRDNAKNTVYLQMNSLKPEDTAVYYCNADWWWYLYLYDYWGQGTQVTVSS | high polyreactivity
20 | QVQLVESGGGLVQAGGSLRLSCAASGIIFYVYAMGWYRQAPVKERELVAAISDTAGDTYYADSVKGRFTISRDNAKNTVYLQMNSLKPEDTAVYYCATDWFSYRGGIFDSWGQGTQVTVSS | low polyreactivity
21 | QVQLVESGGGLVQAGGSLRLSCAASGIIFYYNAMGWNRKAPGKERELVAAISQRGSSTYYADSVKGRFTISRDNAQNTVYLQMNSLKPEDTAVYYCAKRFIYGRYNYWGQGTQVTVSS | high polyreactivity
22 | QVQLVESGGGLVQAGGSLRLSCAASGIIFYYNAMGWYRQAPGKERELVAAISSSGGSTSYADSVKGRFTISRDNAKNTVYLQMNSLKPEDTAVYYCAADSSPAYLGFVGFDYWGQGTQVTVSS | low polyreactivity

Row | Sequence | polyreactivity (PSR sort gate)
23 | QVQLVESGGGLVQAGGSLRLSCAASGIIFYYNAMGWYRQAPGKERELVATIRWRGGSTYYADSVKGRFTISRDNAKNTVYLQMNSLKPEDTAVYYCNKSYDNSSDSDYWGQGTQVTVSS | low polyreactivity
24 | QVQLVESGGGLVQAGGSLRLSCAASGIIFYYNAMGWYRQAPGKEREYVASISSRGGSTYYADSVKGRFTISRDNAKNTVYLQMKSLKPEDPAVYYCAAAFDWRRQRYNYWGHGTQVTVSS | high polyreactivity
25 | QVQLVESGGGLVQAGGSLRLSCAASGIIIDSNAMGWYRQAPGKERELVAAITSGGSTKYADSVKGRFTISRDNAKNTVYLQMNSLKPEDTAVYYCAAGGSYYRDDYWGQGTQVTVSS | low polyreactivity
26 | QVQLVESGGGLVQAGGSLRLSCAASGIIIDSNAMGWYRQAPGKERELVAAITSGGSTKYADSVKGRFTISRDNAKNTVYLQMNSLKPEDTAVYYCNADFRQADQCSYFYEMDSWGQGTQVTVSS | low polyreactivity
27 | QVQLVESGGGLVQAGGSLRLSCAASGIIIGSNAMGWYRQAPGKERELVAAISDSGGSTYYADSVKGRFTISRDNAKNTVYLQMNSLKPEDTAVYYCAAAGRGSWTTYRFDYWGQGTQVTVSS | high polyreactivity
28 | QVQLVESGGGLVQAGGSLRLSCAASGIIISVYALGWYRQAPGKERELVATISLSSGRTYYADSVKGRFTISRDNAKNTVYFQMNCLKPEDTAVYYCNAGGRTASRRYYWGQGTQVTVSS | low polyreactivity
29 | QVQLVESGGGLVQAGGSLRLSCAASGIILDEYAMGWYRQAPGKERELVAAITWIGGSTYADSVKGRFTISRDNAKNTVYLQMNSLKPEDTAVYYCAADYPSLYVWYGYGWYKYDYWGQGTQVTVSS | low polyreactivity
30 | QVQLVESGGGLVQAGGSLRLSCAASGIILDHYAMGWYRQAPGKERELVAAISSGTRTNYADSVKGRFSISRDNAKHTVSLQMNSLKPEDTAVYNCAATIYRRYRSKYSITSYWGQGTQVTVSS | high polyreactivity
31 | QVQLVESGGGLVQAGGSLRLSCAASGIILDHYAMGWYRQAPGKERELVAAISSGTRTNYADSVKGRFTISRDNAKNTVYLQMNSLKPEDTAVYYCAATIYRRYRSKSSITSYWGQGTQVTVSS | high polyreactivity
32 | QVQLVESGGGLVQAGGSLRLSCAASGIILDRNAMGWYRQAPGKERELVAAINSIGGSTYYADSVKGRFTISRDNAKKTVYLQMNSLKPEDTAVYYCAAPSTSSYYWGQGTQVTVSS | low polyreactivity
33 | QVQLVESGGGLVQAGGSLRLSCAASGIILFRYAMGWYRQAPGKERELVAAISWSGGSTYYADSVKGRFTISRDNAMNTVYLQMNCLKPEDTAVYYCAADHKYYGFGEVDYWGQGNQVTVSS | high polyreactivity
34 | QVQLVESGGGLVQAGGSLRLSCAASGIILHYYAMGWYRQAPGKERELVAAISARGGRTYYADSVKGRFTISRDNAKNTVYLQMNSLKPEDTAVYYCARYLRRSSPSPGYGYWGQGTQVTVSS | high polyreactivity
35 | QVQLVESGGGLVQAGGSLRLSCAASGIILLRYTMGWYRQAPGKERELVAAISRSAGRTYYADSVKGRFTISRDNAKNTVYLQMNSLKPEDTAVYYCNKASWYNGEIDYWGQVTQVTVSS | high polyreactivity
36 | QVQLVESGGGLVQAGGSLRLSCAASGIILPYYVMGWYRQAPGKERELVAAISSGGRTYYADSVKGRFTISRDNAKNTVYLQMNSLKPEDTAVYYCNAYFTGKWYDYWGQGTQVTVSS | high polyreactivity
37 | QVQLVESGGGLVQAGGSLRLSCAASGIILRRYAMGWYRQAPGKERELVARISYRGGRTNYADSVKGRFTISRDNAKNTVYLQMNSLKPEDTAVYYCAAVAWYYHEGTAYNYWGQGTQVTVSS | high polyreactivity
38 | QVQLVESGGGLVQAGGSLRLSCAASGIILRYYAMGWYRQAPGKERELVAAITRGGSTNYADSVKGRFTISRDNAKNTVYLQMNSLKPEDTAVYYCAADVVFWFSNVAWGDFGYWGQGTQVTVSS | low polyreactivity
39 | QVQLVESGGGLVQAGGSLRLSCAASGIILSDYAMGWYRPAPGKERELVAAITSGGGSTYYADSVKGRFTISRDNAKNTVYLQMNSLNPEDTAVYFCAADLTSYYGGDYWGQGTQVTVSS | low polyreactivity
40 | QVQLVESGGGLVQAGGSLRLSCAASGIILSYYVMGWYRQAPGKERELVAAISLRGGSRTYYADSVNGRFTISRDNAKNTVYLQMNSLKPEDTAVYYCAKLRWVYGRQTLMDYWGQGTQVTVSS | high polyreactivity
41 | QVQLVESGGGLVQAGGSLRLSCAASGIILTVYAMGWYRQAPGKERELVATISRRGGNTYYADSVKGRFTISRDNAKNTVYLQMNSLKPEDTAVYYCNKAYQYGGYYYWGQGTQVTVSS | high polyreactivity
42 | QVQLVESGGGLVQAGGSLRLSCAASGIILVYNAMGWYRQAPGKERELVAAISSSGGTTYYADSVKGRFTISRDNAKNTVYLQMNSLKPEDTAVYYCNAALPVTRSERYGSDYWGQGTQVTVSS | low polyreactivity
43 | QVQLVESGGGLVQAGGSLRLSCAASGIILYGYDMGWYRQAPGKERELVAAISSSGGSTYYADSVKGRFTISRDNAKNTVYLQMNSLKPEDTAVYYCAASKRYYGQLLTGGYYGYYYCGQGTQVTVSS | high polyreactivity
